Sequences and labels used below:
B1: LYSMD4 (parent)
chain: LLQRELAQEDSLNKLALQYGCKVA
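Further: lentivirally expressed fusions sorted by FACS into six bins by GFP to DsRed ratio, PSI derived from sequencing read proportions per bin multiplied by bin number.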

This series covers variants of B1. Briefly: protein stability index of a GFP-peptide fusion (GPS, HEK-293T) (PSI 1-6); higher = more stable. As to conditions: c terminus: a fixed tail appended.
Regarding LLQRELAQEDSLNKLALQYGCKVG [A24G], the protein stability index is 2.1.

As for LLQRELAQEDSLNKLALQYGCKVN [A24N], the protein stability index came out at 1.98.

Turning to LLQRELAQEDSLNKLALQYGCKVD [A24D], the protein stability index is 2.37.

On to LLQRELAQEDSLNKLALQYGCKVH [A24H], for which the protein stability index is 1.03.

In the case of LLQRELAQEDSLNKLALQYGCKVK [A24K], the protein stability index was found to be 1.82.

For the variant LLQRELAQEDSLNKLALQYGCKVC [A24C], the protein stability index is 3.03.

With LLQRELAQEDSLNKLALQYGRKVA [C21R], the protein stability index stood at 2.54.

For LLQRELAQEDSLNKLALQYGQKVA [C21Q], the protein stability index was 2.98.

Take LLQRELAQEDSLNKLALQYGMKVA [C21M]: the protein stability index stood at 1.47.

With LLQRELAQEDSLNKLALQYGEKVA [C21E], the protein stability index is 3.43.

LLQRELAQEDSLNKLALQYGHKVA [C21H]: the protein stability index was found to be 2.89.

For the variant LLQRELAQEDSLNKLALQYGPKVA [C21P], the protein stability index was 2.59.

As to LLQRELAQEDSLNKLALQYGKKVA [C21K], the protein stability index is 2.63.

In the case of LLQRELAQEDSLNKLALQYGTKVA [C21T], the protein stability index came to 3.03.

Consider LLQRELAQEDSLNKLALQYGIKVA [C21I], for which the protein stability index was determined as 1.91.

Take LLQRELAQEDSLNKLALQYGSKVA [C21S]: the protein stability index is 2.49.

With LLQRELAQEDSLNKLALQYGLKVA [C21L], the protein stability index was found to be 1.95.

On to LLQRELAQEDSLNKLALQYGVKVA [C21V], for which the protein stability index was found to be 1.85.

For the variant LLQRELAQEDSLNKLALQYGNKVA [C21N], the protein stability index came out at 3.29.

With LLQRELAQEDSLNKLALQYGGKVA [C21G], the protein stability index stood at 2.66.

Take LLQRELAQEDSFNKLALQYGCKVA [L12F]: the protein stability index was 2.33.

As for LLQRELAQEDSRNKLALQYGCKVA [L12R], the protein stability index is 2.49.

Turning to LLQRELAQEDSENKLALQYGCKVA [L12E], the protein stability index was determined as 3.83.

LLQRELAQEDSDNKLALQYGCKVA [L12D]: the protein stability index is 4.13.

LLQRELAQEDSNNKLALQYGCKVA [L12N]: the protein stability index was found to be 3.52.

As to LLQRELAQEDSTNKLALQYGCKVA [L12T], the protein stability index was 3.48.

Turning to LLQRELAQEDSYNKLALQYGCKVA [L12Y], the protein stability index was 2.38.

Regarding LLQRELAQEDSHNKLALQYGCKVA [L12H], the protein stability index came out at 3.65.

For the variant LLQRELAQEDSWNKLALQYGCKVA [L12W], the protein stability index was 1.23.

With LLQRELAQEDSCNKLALQYGCKVA [L12C], the protein stability index was determined as 1.72.

Take LLQRELAQEDSVNKLALQYGCKVA [L12V]: the protein stability index is 2.31.

As to LLQRELAQEDSINKLALQYGCKVA [L12I], the protein stability index was 2.06.

For the variant LLQRELAQEDSKNKLALQYGCKVA [L12K], the protein stability index was found to be 2.02.

Regarding LLQRELAQEDSSNKLALQYGCKVA [L12S], the protein stability index came to 3.54.

For the variant LLQRELAQEDSGNKLALQYGCKVA [L12G], the protein stability index is 3.39.

For the variant LLQRELAQEDSMNKLALQYGCKVA [L12M], the protein stability index was 1.97.

Turning to LLQRELAQEDSANKLALQYGCKVA [L12A], the protein stability index was 2.5.

Take LLQRELAQEDSPNKLALQYGCKVA [L12P]: the protein stability index was 3.54.

Regarding LLQRELAQEDSLPKLALQYGCKVA [N13P], the protein stability index was 1.95.

With LLQRELAQEDSLQKLALQYGCKVA [N13Q], the protein stability index was 1.38.

With LLQRELAQEDSLEKLALQYGCKVA [N13E], the protein stability index is 1.65.

With LLQRELAQEDSLTKLALQYGCKVA [N13T], the protein stability index was determined as 1.3.

In the case of LLQRELAQEDSLDKLALQYGCKVA [N13D], the protein stability index was 1.03.

Regarding LLQRELAQEDSLFKLALQYGCKVA [N13F], the protein stability index came to 1.65.

LLQRELAQEDSLKKLALQYGCKVA [N13K]: the protein stability index was found to be 1.94.

Regarding LLQRELAQEDSLCKLALQYGCKVA [N13C], the protein stability index was found to be 2.49.

As to LLQRELAQEDSLRKLALQYGCKVA [N13R], the protein stability index stood at 2.23.

As for LLQRELAQEDSLWKLALQYGCKVA [N13W], the protein stability index is 1.8.

As for LLQRELAQEDSLGKLALQYGCKVA [N13G], the protein stability index worked out at 1.23.

Turning to LLQRELAQEDSLSKLALQYGCKVA [N13S], the protein stability index was determined as 1.84.

As for LLQRELAQEDSLNKLALQYMCKVA [G20M], the protein stability index turned out to be 3.62.

As for LLQRELAQEDSLNKLALQYPCKVA [G20P], the protein stability index amounted to 2.66.

With LLQRELAQEDSLNKLALQYKCKVA [G20K], the protein stability index amounted to 1.62.

LLQRELAQEDSLNKLALQYHCKVA [G20H]: the protein stability index is 3.73.

On to LLQRELAQEDSLNKLALQYVCKVA [G20V], for which the protein stability index worked out at 1.31.

Consider LLQRELAQEDSLNKLALQYQCKVA [G20Q], for which the protein stability index is 4.53.

Consider LLQRELAQEDSLNKLALQYFCKVA [G20F], for which the protein stability index came to 1.13.

For LLQRELAQEDSLNKLALQYECKVA [G20E], the protein stability index came out at 1.7.

For the variant LLQRELAQEDSLNKLALQYNCKVA [G20N], the protein stability index was 2.37.

Consider LLQRELAQEDSLNKLALQYYCKVA [G20Y], for which the protein stability index came out at 1.74.

For LLQRELAQEDSLNKLALQYWCKVA [G20W], the protein stability index came to 3.05.

As for LLQRELAQEDSLNKLALQYACKVA [G20A], the protein stability index came out at 1.09.

LLQRELAQEDSLNKLALQYDCKVA [G20D]: the protein stability index is 2.94.

Regarding LLQRELAQEDSLNKLALQYSCKVA [G20S], the protein stability index was found to be 1.72.

In the case of LLQRELAQEDSLNKLALQYICKVA [G20I], the protein stability index turned out to be 2.42.

Take LLQRELAQEDSLNKLALQYCCKVA [G20C]: the protein stability index amounted to 1.65.

In the case of LLQRELAQEDSLNGLALQYGCKVA [K14G], the protein stability index is 2.91.

As to LLQRELAQEDSLNCLALQYGCKVA [K14C], the protein stability index was 2.37.

In the case of LLQRELAQEDSLNTLALQYGCKVA [K14T], the protein stability index is 1.66.

With LLQRELAQEDSLNWLALQYGCKVA [K14W], the protein stability index worked out at 3.01.

With LLQRELAQEDSLNQLALQYGCKVA [K14Q], the protein stability index turned out to be 2.22.

For LLQRELAQEDSLNRLALQYGCKVA [K14R], the protein stability index worked out at 1.

On to LLQRELAQEDSLNYLALQYGCKVA [K14Y], for which the protein stability index came to 2.06.

For LLQRELAQEDSLNHLALQYGCKVA [K14H], the protein stability index was 2.07.

With LLQRELAQEDSLNFLALQYGCKVA [K14F], the protein stability index turned out to be 2.4.

For the variant LLQRELAQEDSLNSLALQYGCKVA [K14S], the protein stability index was 1.75.

Regarding LLQRELAQEDSLNNLALQYGCKVA [K14N], the protein stability index was 1.86.

On to LLQRELAQEDSLNDLALQYGCKVA [K14D], for which the protein stability index came out at 2.23.

In the case of LLQRELAQEDSLNKLYLQYGCKVA [A16Y], the protein stability index was 1.26.

For LLQRELAQEDSLNKLNLQYGCKVA [A16N], the protein stability index was 1.98.

LLQRELAQEDSLNKLKLQYGCKVA [A16K]: the protein stability index is 2.48.

On to LLQRELAQEDSLNKLELQYGCKVA [A16E], for which the protein stability index was found to be 1.65.

LLQRELAQEDSLNKLQLQYGCKVA [A16Q]: the protein stability index was determined as 1.86.

With LLQRELAQEDSLNKLGLQYGCKVA [A16G], the protein stability index worked out at 2.18.

For the variant LLQRELAQEDSLNKLDLQYGCKVA [A16D], the protein stability index was determined as 3.12.

As to LLQRELAQEDSLNKLILQYGCKVA [A16I], the protein stability index was found to be 2.66.

Take LLQRELAQEDSLNKLHLQYGCKVA [A16H]: the protein stability index was 3.4.

As to LLQRELAQEDSLNKLSLQYGCKVA [A16S], the protein stability index worked out at 1.98.

Take LLQRELAQEDSLNKLRLQYGCKVA [A16R]: the protein stability index worked out at 1.9.

LLQRELAQEDSLNKLTLQYGCKVA [A16T]: the protein stability index is 1.78.

As for LLQRELAQEDSLNKIALQYGCKVA [L15I], the protein stability index was determined as 2.11.

LLQRELAQEDSLNKKALQYGCKVA [L15K]: the protein stability index came out at 3.1.

For LLQRELAQEDSLNKSALQYGCKVA [L15S], the protein stability index was found to be 2.88.

As for LLQRELAQEDSLNKFALQYGCKVA [L15F], the protein stability index came out at 1.07.

The values are drawn from the supplement of paper PMC10567573.
